Patent US20220242962A1 (APTEVO RESEARCH AND DEVELOPMENT, published 2022)
Read-outs that look alike come from different tables or passages of the source.

Tests used:
[1] = biological target: T1, Full-length Human OX40 (human, UniProt P43489 29-277); test: cell-based or functional assay
T1 sequence: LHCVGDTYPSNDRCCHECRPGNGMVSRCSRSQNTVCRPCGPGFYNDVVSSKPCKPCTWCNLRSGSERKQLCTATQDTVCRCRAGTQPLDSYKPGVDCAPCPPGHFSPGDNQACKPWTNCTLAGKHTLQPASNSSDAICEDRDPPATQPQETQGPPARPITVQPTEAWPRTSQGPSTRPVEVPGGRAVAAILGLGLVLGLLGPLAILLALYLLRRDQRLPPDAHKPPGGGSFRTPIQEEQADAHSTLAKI

[2] = biological target: T2, Full-length Human 4-1BB (human, UniProt Q07011 24-255); test: cell-based or functional assay
[3] = biological target: T1, Full-length Human OX40; test: flow cytometry, CHO cells expressing human OX40
Description: (§1) FIGS. 12A-12D show the binding of anti-4-1BB x anti-OX40 constructs, with additional humanization in 4-1BB and altered orientations of binding domains, human (12A) or cynomolgus (12C) 4-1BB-expressing Jurkat cells or human (12B) or cynomolgus (12D) OX40-expressing CHOK1SV cells. Serial dilutions of ADAPTIR™ constructs were incubated with transfected cells and subsequently labelled with a fluorescently-conjugated goat-a-human Fc secondary antibody. […] (See Example 19.)
(§2) Binding studies were performed using the flow cytometry-based staining procedures described above.

[4] = biological target: T3, Human OX40 ECD-AFH (human); test: SPR, construct captured, monomeric ECD as analyte
T3 construct: ECD'; entry includes the C-terminal tags; also called OXF003; Human OX40 ECD-avi-flag-his
T3 chain: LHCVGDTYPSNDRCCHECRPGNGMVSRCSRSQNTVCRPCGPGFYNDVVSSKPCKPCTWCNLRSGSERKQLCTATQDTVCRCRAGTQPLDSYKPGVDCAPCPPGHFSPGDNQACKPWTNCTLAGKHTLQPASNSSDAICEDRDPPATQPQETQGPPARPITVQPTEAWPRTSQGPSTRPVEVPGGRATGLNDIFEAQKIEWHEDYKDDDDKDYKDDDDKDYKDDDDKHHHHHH
Description: (§3) Mouse anti-human IgG (GE, BR-1008-39) at 25 μg/ml in 10 mM sodium acetate pH 5.0 was immobilized at a density of ˜10,000 response units (RU) onto each flow cell of a CM5 research-grade sensor chip (GE) by standard amine coupling chemistry. Each binding protein at approximately 100 nM in HBS-EP+ with 0.2% BSA buffer was captured in a flow cell with the immobilized anti-human IgG at a flow rate of 10 μL/min for 20 seconds, leaving one flow cell surface unmodified as the reference. Using a single-cycle kinetics mode, five different concentrations of ECD were sequentially injected through each flow cell at 30 μL/min for 300 seconds followed by a 600 second dissociation period. Regeneration was achieved by injection of 3 M MgCl₂ at a flow rate of 30 μL/min for 30 seconds followed by HBS-EP+ with 0.2% BSA buffer stabilization for 1 min.
(§4) Sensorgrams obtained from kinetic SPR measurements were analyzed by the double subtraction method. The signal from the reference flow cell was subtracted from the analyte binding response obtained from flow cells with immobilized or captured ligands. Buffer reference responses were then averaged from multiple injections. The averaged buffer reference responses were then subtracted from analyte binding responses, and the final double-referenced data were analyzed with Biacore T200 Evaluation software (2.0, GE), globally fitting data to derive kinetic parameters. All sensorgrams were fitted using a simple one-to-one binding model.
(§5) Protein was produced by transient expression, purified by ProA chromatography and prep SEC.

[5] = biological target: T4, Human 4-1BB ECD-AFH (human); test: SPR, construct captured, monomeric ECD as analyte
T4 construct: entry includes the tags; also called FOB003; HUMAN CD137 ECD-AVI-FLAG-HIS
Description: as §3, §4, §5

[6] = biological target: T2, Full-length Human 4-1BB; test: flow cytometry, Jurkat cells expressing human 4-1BB
Description: as §1, §2

[7] = biological target: T5, Full-length Cyno 4-1BB (cynomolgus monkey, UniProt Q07011 24-255 (human entry)); test: flow cytometry on Jurkat cells transfected with cynomolgus 4-1BB, goat anti-human Fc secondary antibody, MFI (Mean)
T5 construct: on Jurkat or CHO cells; also called FOB006; cynomolgus 4-1BB
T5 chain: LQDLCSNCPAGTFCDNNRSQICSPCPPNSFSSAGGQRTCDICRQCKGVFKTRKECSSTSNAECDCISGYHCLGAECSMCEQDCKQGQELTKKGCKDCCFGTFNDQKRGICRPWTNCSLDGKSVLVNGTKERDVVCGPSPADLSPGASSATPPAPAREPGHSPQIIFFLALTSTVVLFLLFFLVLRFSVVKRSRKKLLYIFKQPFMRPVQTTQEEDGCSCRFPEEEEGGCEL
Description: as §1, §2

[8] = biological target: T6, Full-length Cyno OX40 (cynomolgus monkey, UniProt P43489 29-277 (human entry)); test: flow cytometry on CHOK1SV cells transfected with cynomolgus OX40, goat anti-human Fc secondary antibody, MFI (Mean)
T6 construct: on CHO-K1SV cells; also called OXF004; cynomolgus OX40
T6 chain: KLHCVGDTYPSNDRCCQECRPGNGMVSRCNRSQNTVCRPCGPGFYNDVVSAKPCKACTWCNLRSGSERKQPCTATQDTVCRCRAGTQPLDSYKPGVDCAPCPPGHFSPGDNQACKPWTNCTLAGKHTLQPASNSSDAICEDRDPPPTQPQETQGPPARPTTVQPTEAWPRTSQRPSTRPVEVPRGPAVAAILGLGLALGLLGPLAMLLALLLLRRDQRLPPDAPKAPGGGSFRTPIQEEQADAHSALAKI
Description: as §1, §2

[9] = biological target: T1, Full-length Human OX40; test: cell-based or functional assay; remark: listed apart in the source
[10] = biological target: T2, Full-length Human 4-1BB; test: cell-based or functional assay; remark: listed apart in the source
[11] = biological target: T3, Human OX40 ECD-AFH; test: SPR (Biacore 8K), construct captured, monovalent ECD
Description: as §3, §4
(§6) Using the BIACORE 8K SPR system, the affinity of these constructs for human and cyno 4-1BB, and human and cyno OX40 ECD, were determined using the methods described above. Monovalent binding affinity was determined by capturing the ADAPTIR™ bispecific construct on the chip and injecting monovalent ECD of the target at multiple concentrations.

[12] = biological target: T7, Cyno OX40-AFH (cynomolgus monkey); test: as above
T7 construct: entry includes the tags; also called OXF005; cyno OX40 ECD
T7 chain: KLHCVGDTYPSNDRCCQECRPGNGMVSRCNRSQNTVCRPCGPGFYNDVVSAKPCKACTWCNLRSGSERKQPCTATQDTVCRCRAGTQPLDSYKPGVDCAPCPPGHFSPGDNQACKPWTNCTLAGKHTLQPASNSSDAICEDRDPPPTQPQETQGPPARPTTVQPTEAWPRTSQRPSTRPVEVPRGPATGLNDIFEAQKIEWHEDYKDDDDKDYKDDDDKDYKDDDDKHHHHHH
Description: as §3, §4, §6

[13] = biological target: T4, Human 4-1BB ECD-AFH; test: as above
Description: as §3, §4, §6

[14] = biological target: T8, Cyno 4-1BB ECD-AFH (cynomolgus monkey); test: as above
T8 construct: entry includes the tags; also called FOB004; Cyno CD137 ECD-avi-flag-his
T8 chain: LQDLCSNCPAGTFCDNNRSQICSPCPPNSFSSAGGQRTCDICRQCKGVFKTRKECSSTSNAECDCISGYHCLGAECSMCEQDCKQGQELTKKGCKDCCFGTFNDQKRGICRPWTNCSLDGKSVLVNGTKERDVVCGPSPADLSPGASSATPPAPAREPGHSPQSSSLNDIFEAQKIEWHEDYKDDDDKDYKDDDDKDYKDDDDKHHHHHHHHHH
Description: as §3, §4, §6

[15] = biological target: T5, Full-length Cyno 4-1BB; test: flow cytometry on Jurkat cells transfected with cynomolgus 4-1BB, goat anti-human Fc secondary antibody, MFI (Mean)
Description: (§7) Serial dilutions of ADAPTIR™ constructs were incubated with transfected target cells and subsequently labelled with a fluorescently-conjugated goat-a-human Fc secondary antibody. […] (See Example 25.)

[16] = biological target: T6, Full-length Cyno OX40; test: flow cytometry on CHOK1SV cells transfected with cynomolgus OX40, goat anti-human Fc secondary antibody, MFI (Mean)
Description: as §7

B1: FXX01099 (bispecific antibody)
chain: EVQLVQSGAEVKKPGASVKVSCKASGYTFTSYWMNWVRQAPGQGLEWMGNIYPSGGSTNYAQKFQGRVTMTVDTSTSTVYMELSSLRSEDTAVYYCASFSDGYYAYAMDYWGQGTLVTVSSGGGGSGGGGSGGGGSGGGGSEIVMTQSPATLSLSPGERATLSCRASQSVSSYLNWYQQKPGQAPRLLIYYASRRHTGIPARFSGSGSGTDFTLTISSLQPEDFAVYYCQQGYNLPYTFGQGTKVEIKEPKSSDKTHTCPPCPAPPAAAPSVFLFPPKPKDTLMISRTPEVTCVVVDVSHEDPEVKFNWYVDGVEVHNAKTKPREEQYNSTYRVVSVLTVLHQDWLNGKEYKCAVSNKALPAPIEKTISKAKGQPREPQVYTLPPSRDELTKNQVSLTCLVKGFYPSDIAVEWESNGQPENNYKTTPPVLDSDGSFFLYSKLTVDKSRWQQGNVFSCSVMHEALHNHYTQKSLSLSPGGGGSPSSYVLTQPPSVSVAPGKTARITCGGNNIGSKSVNWFQQKPGQAPVLVVYDDSGRPSGIPERFSGSTSGNTATLTISRVEAGDEADYYCQVWDSSSDHVVFGGGTKLTVLGGGGSGGGGSGGGGSGGGGSQVQLVESGGGVVQPGRSLRLSCAASGFTLSYYGMHWVRQAPGKGLEWVAAISHDGSDKYYADSVKGRFTISRDNSKNTLYLQMNSLRAEDTAVYYCSNDQFDPWGQGTLVTVSSR
notes: ADAPTIR anti-4-1BB (HL) x anti-OX40 with Q17K; also called FX01099
OX40 Reporter Assay EC50 [1]: 10 pM | OX40 Reporter Assay Max induction [1]: 1.93e+06 | 4-1BB Reporter Assay EC50 [2]: 17 pM | 4-1BB Reporter Assay Max induction [2]: 6.65e+06 | EC50 [3]: 0.36 nM | max MFI [3]: 10400 MFI | Kd [4]: 0.4 nM | koff [4]: 0.00028 s⁻¹ | kon [4]: 770000 M⁻¹ s⁻¹ | Kd [5]: 14 nM | koff [5]: 0.0046 s⁻¹ | kon [5]: 330000 M⁻¹ s⁻¹ | EC50 [6]: 0.25 nM | max MFI [6]: 4900 MFI | EC50 (read off the curve) [7]: ~0.3 nM | EC50 (read off the curve) [8]: ~0.8 nM

B2: FXX01121 (bispecific antibody)
chain: EVQLVQSGAEVKKPGASVKVSCKASGYTFTSYWMNWVRQAPGQGLEWMGNIYPSGGSTNYAQKFQGRVTMTVDTSTSTVYMELSSLRSEDTAVYYCASFSDGYYAYAMDYWGQGTLVTVSSGGGGSGGGGSGGGGSGGGGSEIVMTQSPATLSLSPGERATLSCRASQSVSSYLNWYQQKPGQAPRLLIYYASRRHTGIPARFSGSGSGTDFTLTISSLQPEDFAVYYCQQGYNLPYTFGQGTKVEIKEPKSSDKTHTCPPCPAPPAAAPSVFLFPPKPKDTLMISRTPEVTCVVVDVSHEDPEVKFNWYVDGVEVHNAKTKPREEQYNSTYRVVSVLTVLHQDWLNGKEYKCAVSNKALPAPIEKTISKAKGQPREPQVYTLPPSRDELTKNQVSLTCLVKGFYPSDIAVEWESNGQPENNYKTTPPVLDSDGSFFLYSKLTVDKSRWQQGNVFSCSVMHEALHNHYTQKSLSLSPGGGGSPSSYVLTQPPSVSVAPGKTARITCGGNNIGSKSVNWFQQKPGQAPVLVVYDDSGRPSGIPKRFSGSTSGNTATLTISRVEAGDEADYYCQVWDSSSDHVVFGGGTKLTVLGGGGSGGGGSGGGGSGGGGSQVQLVESGGGVVQPGRSLRLSCAASGFTLSYYGMHWVRQAPGKGLEWVAAISHDGSDKYYADSVKGRFTISRDNSKNRLYLQMNSLRAEDTAVYYCSNDQFDPWGQGTLVTVSSR
notes: ADAPTIR anti-4-1BB x anti-OX40, pI variant
OX40 Reporter Assay EC50 [9]: 16 pM | OX40 Reporter Assay Max induction [9]: 6.19e+06 | 4-1BB Reporter Assay EC50 [10]: 16 pM | 4-1BB Reporter Assay Max induction [10]: 1.43e+06 | Kd [11]: 0.1 nM | koff [11]: 0.00013 s⁻¹ | kon [11]: 1.2e+06 M⁻¹ s⁻¹ | Kd [12]: 0.2 nM | koff [12]: 0.00018 s⁻¹ | kon [12]: 1e+06 M⁻¹ s⁻¹ | Kd [13]: 9 nM | koff [13]: 0.0036 s⁻¹ | kon [13]: 390000 M⁻¹ s⁻¹ | Kd [14]: 30 nM | koff [14]: 0.013 s⁻¹ | kon [14]: 420000 M⁻¹ s⁻¹ | EC50 (read off the curve) [15]: ~0.3 nM | EC50 (read off the curve) [16]: 1 to 2 nM
